According to patent publication US20130045200A1:

Target: rat PD-L1 (rat) (UniProt D4AE25)
Experiment: flow cytometry (FACS); rat cells or protein not described

- EC50: 0.8 nM
Substance: YW243.55.S70 (IgG) (antibody)
